# Marks after values point to notes of the source that are not given here.
# What was measured:
# p55 TNF Receptor = p55 TNF Receptor (Homo sapiens, UniProt P19438); assay: FRET peptide cleavage assay, p55 TNF receptor peptide; assay type: biochemical; conditions: Zn++ 0.1 mM, Ca++ 2 mM, corrected for EDTA, 37° C. for 3 hours
# Method: Cytokine-specific proteolytic activity can rapidly be quantified by Fluorescence Resonance Energy Transfer (FRET). Peptides having the amino acid sequence of the TNF Receptor or other protein substrates are labeled at opposite ends with a fluorescence emitter and a fluorescence quencher. The peptide is then incubated with a source of receptor cleaving enzyme, and fluorescence is measured. The quenching group normally absorbs fluorescence from the emitter. But enzymatic cleavage of the peptide decouples the quenching group, and fluorescence emission increases proportionally.
# The peptides used as substrates in the cleavage assay were taken from the known sites of proteolytic cleavage of the whole protein. The peptides were labeled with the fluorescence emitter (Edans-●) at the C-terminal, and the quenching hapten (Dabcyl-▴) at the N-terminal.
# The assay is conducted in the presence of the metal cations Zn^++ (0.1 mM) and Ca^++ (2 mM), and corrected for cleavage in the presence of EDTA (20 mM). Dependence on divalent cations confirms that the enzyme activity measured in this assay is a metalloprotease. The assay mixture also contains a cocktail of protease inhibitors and bovine albumin. Cleavage is measured as the net change in fluorescence emission after incubating the enzyme with the peptide at 37° C. for 3 hours. […]
# TNF receptor [1] = assay: Cell surface cleavage assay, release of TNF receptor isoforms by enzyme immunoassay; assay type: cell-based; conditions: 25 μg protein with 2.5×10^6 cells; (treated—untreated)/untreated
# Method: To determine cell surface cleavage activity, 25 μg of MP8-FL2 was combined with 2.5×10^6 cells. Release of both TNF receptor isoforms was determined by enzyme immunoassay as (treated—untreated)/untreated.
# TNF receptor [2] = assay: TNF receptor release in vivo after subcutaneous injection; set-up: species or system Balb/c mice
# Method: To determine if the enzyme cleaves TNF receptors in vivo, 100,000 FU of purified MP8 was injected subcutaneously as a 500 μL bolus into female Balb/c mice. Control mice were injected with saline. Serum was sampled periodically, and tested for cytokine levels using ELISA kits from R&D System.
# [3] = Stability of receptor cleaving activity upon storage (FRET assay); assay type: physicochemical; conditions: a month of storage at 4° C. or −70° C., purified form
# Method: The stability of MP8 was determined by storing aliquots of MP8 at 4° C. or −70°. Aliquots were taken out periodically to determine enzyme cleaving activity in the fluorescence resonance energy transfer peptide cleavage assay.
# [4] = Clearance of MP8 protein from the circulation by dot-blot analysis; assay type: in vivo; conditions: mice
# [5] = system: collagen-induced arthritis; assay: Collagen-induced arthritis, treatment of established disease; assay type: in vivo
# Method: Collagen-induced arthritis is a standard model for evaluating potential therapeutic agents for rheumatoid arthritis (Courtenay et al., Nature 283:666, 1980; Williams et al., Proc Natl Acad Sci USA 89:9784, 1992; Gerlag et al., J Immunol 165:1652, 2000). Arthritis was induced in 7-9 week old female DBA/1 LacJ mice by immunization with collagen. On day 0, the mice were injected at the base of the tail with 100 μg bovine type II collagen in complete Freund's adjuvant. On day 7, mice were boosted with an intraperitoneal injection of 100 μg collagen. To enhance and synchronize synovitis, the mice were injected subcutaneously on day 14 with 100 μg of lipopolysaccharide (LPS). Joint swelling was monitored in a blinded fashion by measuring the diameter in all 4 paws and both ankles using a constant pressure gauge. Arthritis Index was also determined on the following scale, and summed for all extremities. 0≡normal; 1≡one digit swollen; 2≡more than one digit swollen; 3≡joint distortion; 4≡ankylosis. The arthritis experiments were conducted under contract by Calvert Preclinical Services, Inc., Olyphant Pa.
# Mice were immunized with collagen on days 0, and 7, and then boosted with LPS on day 14. Treatment with MP8 was initiated on day 22 when arthritis was well established. At that time, animals with arthritis were randomized into three groups, and unaffected animals were excluded. The three affected groups were then treated for 18 consecutive days with saline control, or with MP8 at either of two different doses.
# [6] = system: carrageenan-induced paw edema; assay: Carrageenan-induced paw edema; assay type: in vivo, Sprague Dawley rats; conditions: given one hour before carrageenan; paw volume three hours later; MP8 subcutaneously, indomethacin by mouth
# Method: Based on the standard model (Winter et al., Proc Soc Exp Biol Med 111:544, 1962; Hansra et al., Inflammation 24:141, 2000), the experiment was performed as follows. Male Sprague Dawley rats were randomized by weight into three treatment groups. The animals were administered MP8 or control solution subcutaneously, or indomethacin by mouth. One hour later, they were injected in the left hind paw with a sterile solution of 1% carrageenan suspension in water, in order to induce swelling. Three hours later, the volume of the injected paw was measured by water displacement in a water plethysmograph (mean±SEM; 10 animals per group).
# Male Sprague Dawley rats were administered with test protein or indomethacin (anti-inflammatory control), and then challenged in a hind footpad with carrageenan, as in Example 12.
# [7] = system: Experimental Autoimmune Encephalomyelitis; assay: Experimental Autoimmune Encephalomyelitis (EAE); assay type: in vivo, SJL/J mice; conditions: for Day of Onset (±SEM): p < 0.001; for Peak Clinical Score (±SEM): scale 0-5
# Method: The EAE model (Brown et al., Lab. Invest. 45:278, 1981) was conducted as follows. Female SJL/J mice (6 weeks old) were randomized into 3 groups of 10. 2 mL of Myelin Proteolipid Peptide (PLP) was emulsified in 3 mL of Complete Freund's Adjuvant containing an additional 20 mg of M. tuberculosis H37Ra. On day 0, mice were immunized subcutaneously in the base of the tail and footpad with a total of 60 μg PLP. They were also given […] pertussis toxin i.p. on days 0 and 2. MP8 or saline control was administered s.c. every day from day −3 to day 20. Progression of the disease was measured up to day 21 on the following scale: 0≡normal; 1≡limp tail or hind limb weakness; 2≡both limp tail and hind limb weakness; 3≡partial hind limb paralysis; 4≡complete hind limb paralysis; 5≡moribund or sacrificed.
# [8] = 100,000 FU s.c. every day from day −3 to day 20
# [9] = 300,000 FU s.c. every day from day −3 to day 20
molecule,measurement,setting,value
"MP8: polypeptide having the sequence of SEQ. ID NO:41 (usually with a HIS tag); cytokine receptor releasing protein expressed in E. coli (protein, listed as Homo sapiens, HIS tag, ID NO:41 (usually with a HIS tag); cytokine receptor releasing protein expressed in E. coli) WIQRIRHEGNSTVYEWRTGTEPSVVERPHLEELPEQVAEDAIDWGDFGVEAVSEGTDSGISAEAAGIDWGIFPESDSKDPGGDGIDWGDDAVALQITVLEAGTQAPEGVARGPDALTLLEYTETRNQFLDELMELEIFLAQRAVELSEEADVLSVSQFQLAPAILQGQTKEKMVTMVSVLEDLIGKLTSLQLQHLFMILASPRYVDRVTEFLQQKLKQSQLLALKKELMVQKQQEALEEQAALEPKLDLLLEKTKELQKLIEADISKRYSGRPVNLMGTSL",cleavage of p55 TNF receptor (R1) peptide,p55 TNF Receptor,cleaves
same,cleavage and release of TNF receptor from the cell surface,TNF receptor [1],"cause cleavage and release of TNF receptor, with preference for the R1 (p55) isoform"
same,persistence of the effect after administration,"TNF receptor [2]; 100,000 FU subcutaneously",48 h
same,persistence of released receptors in the circulation,TNF receptor [2]; other experiments,at least 6 days
same,loss of peptide cleaving activity on storage,[3],no detectable loss of activity
same,first clearance half-time from the circulation,[4],~39 h
same,toxicity,[5]; MP8 treated groups,No toxicity was detected
same,swelling in the affected joints,"[5]; daily for 18 days from day 22, two doses, p<0.001 vs control",highly significant reduction in swelling
same,severity of inflammatory synovitis by histopathology,"[5]; higher dose, end of experiment",lower severity of inflammatory synovitis
same,level of antibodies to type II collagen in serum,"[5]; low or high dose, ELISA, p<0.02",almost half the control
same,inhibition of edema formation,[6],62%
same,Incidence of Disease,[7]; [8],5 out of 7
same,Day of Onset (±SEM),[7]; [8],18.0 ± 0.8 ^a
same,Peak Clinical Score (±SEM),[7]; [8],2.4 ± 0.7
same,Incidence of Disease,[7]; [9],3 out of 7
same,Day of Onset (±SEM),[7]; [9],18.0 ± 2.5 ^a
same,Peak Clinical Score (±SEM),"[7]; 300,000 FU s.c. every day from day −3 to day 20, p < 0.01",1.0 ± 0.5 ^b
same,emergence of symptoms,[7]; delayed from 12 days,18 days
same,weight gain of treated animals,"[7]; mouse, in vivo",continued to show normal weight gain

# Source: patent publication US7807387B2, “Biological agent that causes IL-6 receptor release” (Meyer Pharmaceuticals LLC, priority 2003, dated 2010)
